The record followed here is patent publication US20150174169.

For data set [1], the system named is IL2RG ZFN pair (ZFN-L/ZFN-R, exon 5) (synthetic construct). The data set can be described thus: cell_activity. Conditions: in vitro sample A.
Data set [2] has as its system AAVS1 ZFN pair (ZFN-L/ZFN-R, PPP1R12C intron 1) (synthetic construct). In words: cell_activity. Conditions: CD34+ cord blood cells, Cel-1 mismatch assay, +/-3.8.

Turning to SCARB1 off-target site, the activity in data set [1] (B 0.70, G ns, ns in mouse) came out at 0.17 % NHEJ. On to AAVS1 ZFN target site, for which the activity in data set [2] stood at 23.8 % NHEJ. In data set [1] (deep sequencing, B 61.18, G 45.60, Cel-1 assay 26.3+/-2.7 (p192)), IL2RG ZFN target site gave an activity of 54.6 % NHEJ. The substance SLC31A1 off-target site came in with an activity in data set [1] (B and G ns, mouse C0 0.02) of 0.61 % NHEJ.
